The target in experiment [1] is T1, Recombinant Human DLL4 (delta-like protein 4) (human, UniProt Q9NR61 27-524).
T1 construct: Bought recombinant human DLL4 (R&D Systems Cat#1506-D4/CF); also called rHuman DLL4
Description: ELISA, DLL4-coated plate, 100 nM Fab.

Experiment [2] concerns the target T1, Recombinant Human DLL4 (delta-like …). In words: ECL (MSD) binding assay, immobilised DLL4, 10 nM Fab.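 Also: fab binding read as electrochemiluminescence via a TAG-labelled detection antibody, 1 h incubations at 20 °C, antigen signal compared with each well's blank, ratio of at least 4 scored as binder.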
Experiment [3] has as its target T2, Recombinant Human DLL4 (delta-like protein 4) (human, UniProt Q9NR61 27-524).
T2 construct: Bought recombinant human DLL4 (R&D Systems Cat#1506-D4/CF); also called rHuman DLL4; Delta-like ligand 4
Description: SPR, Fab on recombinant human DLL4. For orientation: In SPR one partner is held on a chip, and binding of the other changes the refractive index at the surface.

The text below walks through data of patent publication US20120316071A1 (published 2012).

A word on the Kd: it is the equilibrium constant for the complex coming apart. Broadly, the koff is the first-order rate constant of dissociation. What is called kon is the second-order rate constant of association.

B1: Fab VH5-51_IGHD5-18*01>3_IGHJ4*01 G100K/G104T & V3-4_IGLJ1*01 M94D (Fab, V domains shown)
VH: EVQLVQSGAEVKKPGESLKISCKGSGYSFTSYWIGWVRQMPGKGLEWMGIIYPGDSDTRYSPSFQGQVTISADKSISTAYLQWSSLKASDTAMYYCARRKYSYTYDYFDYWGQGTLVTVSS
VL: QTVVTQEPSFSVSPGGTVTLTCGLSSGSVSTSYYPSWYQQTPGQAPRTLIYSTNTRSSGVPDRFSGSILGNKAALTITGAQADDESDYYCVLYDGSGISYVFGTGTKVTVL
notes: Fab; expressed with CH1 (His and Flag tags) and lambda CL from the expression plasmids; also called H:KT & M94D
For B1, in experiment [1], the “ELISA Signal [100 nM Fab]” value was 0.01. The “ECL Signal [10 nM Fab]” value in experiment [2] amounted to 52700.

B2: Fab VH1-46_IGHD6-6*01_IGHJ1*01 & L6_IGKJ1*01 (Fab, V domains shown)
VH: QVQLVQSGAEVKKPGASVKVSCKASGYTFTSYYMHWVRQAPGQGLEWMGIINPSGGSTSYAQKFQGRVTMTRDTSTSTVYMELSSLRSEDTAVYYCAREEYSSSSAEYFQHWGQGTLVTVSS
VL: not shown
notes: Fab expressed in E. coli; VH was cloned into Plasmid A (heavy chain CH1 constant region, His6 and Flag tags) and VL into Plasmid C (kappa CL); also called parental; wildtype
Consider B2, for which, in experiment [3], the Kd was 730 nM, the koff came to 0.101 s⁻¹ and the kon was 163000 M⁻¹ s⁻¹.

B3: Fab VH1-46_IGHD6-6*01_IGHJ1*01 S102A/S103P/S104F/H111F I51V/N52L/S54T/G56H (APFF VLTH) & L6_IGKJ1*01 S28N/S30D/S31H S52L/A55S (NDH LS) (Fab, V domains shown)
VH: QVQLVQSGAEVKKPGASVKVSCKASGYTFTSYYMHWVRQAPGQGLEWMGIVLPTGHSTSYAQKFQGRVTMTRDTSTSTVYMELSSLRSEDTAVYYCAREEYAPFSAEYFQFWGQGTLVTVSS
VL: EIVLTQSPATLSLSPGERATLSCRASQNVDHYLAWYQQKPGQAPRLLIYDALNRSTGIPARFSGSGSGTDFTLTISSLEPEDFAVYYCQQRSNWPPWTFGQGTKVEIKR
notes: Fab with CH1 (Plasmid A, His6 and Flag tags) and kappa CL (Plasmid C); also called H:APFF VLTH & L:NDH LS
With B3, in experiment [3], the Kd worked out at 1.7 nM, the koff stood at 0.00109 s⁻¹ and the kon is 684000 M⁻¹ s⁻¹.

B4: Fab VH1-46_IGHD6-6*01_IGHJ1*01 S102A/S103P/S104F/H111F G56H (APFF G56H) & L6_IGKJ1*01 (Fab, V domains shown)
VH: QVQLVQSGAEVKKPGASVKVSCKASGYTFTSYYMHWVRQAPGQGLEWMGIINPSGHSTSYAQKFQGRVTMTRDTSTSTVYMELSSLRSEDTAVYYCAREEYAPFSAEYFQFWGQGTLVTVSS
VL: not shown
notes: Fab with CH1 (Plasmid A, His6 and Flag tags) and kappa CL (Plasmid C)
Consider B4, for which, in experiment [3], the Kd was found to be 32.7 nM, the koff worked out at 0.0101 s⁻¹ and the kon was determined as 351000 M⁻¹ s⁻¹.

B5: Fab VH1-46_IGHD6-6*01_IGHJ1*01 S102A/S103P/S104F/H111Y (APFY) & L6_IGKJ1*01 (Fab, V domains shown)
VH: QVQLVQSGAEVKKPGASVKVSCKASGYTFTSYYMHWVRQAPGQGLEWMGIINPSGGSTSYAQKFQGRVTMTRDTSTSTVYMELSSLRSEDTAVYYCAREEYAPFSAEYFQYWGQGTLVTVSS
VL: not shown
notes: as for B4
As for B5, in experiment [3], the Kd was 93.1 nM, the koff worked out at 0.0317 s⁻¹ and the kon was determined as 340000 M⁻¹ s⁻¹.

B6: Fab VH1-46_IGHD6-6*01_IGHJ1*01 S102A/S103P/S104F/H111F I51V/N52L/S54T/G56H (APFF VLTH) & L6_IGKJ1*01 S28N/S30D/S31H (NDH) (Fab, V domains shown)
VH: QVQLVQSGAEVKKPGASVKVSCKASGYTFTSYYMHWVRQAPGQGLEWMGIVLPTGHSTSYAQKFQGRVTMTRDTSTSTVYMELSSLRSEDTAVYYCAREEYAPFSAEYFQFWGQGTLVTVSS
VL: EIVLTQSPATLSLSPGERATLSCRASQNVDHYLAWYQQKPGQAPRLLIYDASNRATGIPARFSGSGSGTDFTLTISSLEPEDFAVYYCQQRSNWPPWTFGQGTKVEIKR
notes: Fab with CH1 (Plasmid A, His6 and Flag tags) and kappa CL (Plasmid C); also called H:APFF VLTH & L:NDH
Turning to B6, in experiment [3], the Kd worked out at 2.7 nM, the koff is 0.00113 s⁻¹ and the kon was found to be 430000 M⁻¹ s⁻¹.

B7: Fab VH1-46_IGHD6-6*01_IGHJ1*01 S102A/S103P/S104F (APF) & L6_IGKJ1*01 (Fab, V domains shown)
VH: QVQLVQSGAEVKKPGASVKVSCKASGYTFTSYYMHWVRQAPGQGLEWMGIINPSGGSTSYAQKFQGRVTMTRDTSTSTVYMELSSLRSEDTAVYYCAREEYAPFSAEYFQHWGQGTLVTVSS
VL: not shown
notes: Fab with CH1 (Plasmid A, His6 and Flag tags) and kappa CL (Plasmid C); also called H:APF & L:wt; APF triple mutant
For B7, in experiment [3], the Kd came to 122 nM, the koff worked out at 0.0492 s⁻¹ and the kon was found to be 405000 M⁻¹ s⁻¹.

B8: Fab VH1-46_IGHD6-6*01_IGHJ1*01 S104F & L6_IGKJ1*01 (Fab, V domains shown)
VH: QVQLVQSGAEVKKPGASVKVSCKASGYTFTSYYMHWVRQAPGQGLEWMGIINPSGGSTSYAQKFQGRVTMTRDTSTSTVYMELSSLRSEDTAVYYCAREEYSSFSAEYFQHWGQGTLVTVSS
VL: not shown
notes: as for B4
With B8, in experiment [3], the Kd was found to be 380 nM, the koff stood at 0.19 s⁻¹ and the kon was 500000 M⁻¹ s⁻¹.

B9: Fab VH1-46_IGHD6-6*01_IGHJ1*01 S102A/S103P/S104F (APF) & L6_IGKJ1*01 S31K (Fab, V domains shown)
VH: QVQLVQSGAEVKKPGASVKVSCKASGYTFTSYYMHWVRQAPGQGLEWMGIINPSGGSTSYAQKFQGRVTMTRDTSTSTVYMELSSLRSEDTAVYYCAREEYAPFSAEYFQHWGQGTLVTVSS
VL: EIVLTQSPATLSLSPGERATLSCRASQSVSKYLAWYQQKPGQAPRLLIYDASNRATGIPARFSGSGSGTDFTLTISSLEPEDFAVYYCQQRSNWPPWTFGQGTKVEIKR
notes: as for B4
With B9, in experiment [3], the Kd stood at 112 nM, the koff amounted to 0.0392 s⁻¹ and the kon came out at 350000 M⁻¹ s⁻¹.

B10: Fab VH1-46_IGHD6-6*01_IGHJ1*01 S102A/S103P/S104F/H111F (APFF) & L6_IGKJ1*01 (Fab, V domains shown)
VH: QVQLVQSGAEVKKPGASVKVSCKASGYTFTSYYMHWVRQAPGQGLEWMGIINPSGGSTSYAQKFQGRVTMTRDTSTSTVYMELSSLRSEDTAVYYCAREEYAPFSAEYFQFWGQGTLVTVSS
VL: not shown
notes: Fab with CH1 (Plasmid A, His6 and Flag tags) and kappa CL (Plasmid C); also called H:APFF & L:wt
Turning to B10, in experiment [3], the Kd was 70.6 nM, the koff was 0.03 s⁻¹ and the kon came to 425000 M⁻¹ s⁻¹.
